Target: T1, 重组冠状病毒S蛋白 (SARS冠状病毒棘突蛋白部分片段, 氨基酸位点257~573) (SARS冠状病毒, UniProt P59594 257-573)
T1 construct: range 257-573; also called 重组S蛋白; 重组抗原S蛋白
Assay: SPR (Biacore 3000), recombinant S protein immobilised, Fab at 2.5-0.3125 μg/ml

B1: 抗冠状病毒人源性基因工程抗体Fab片段AS3-3 (Fab, V domains shown)
VH: EVKLVESGGGVVQPGRSLRLSCAASGFRFSTYAIHWVRQAPGKGLEWVARISHDGSQTHYADSVQGRFGVSRDNSNYTAYVQLNSLRPDDTAVYFCARAYSSTPDYGMDVWGQGTAVTVSS
VL: EIVMTQSPLSPVTLGQPASISCKSSQSLVDTNGNTYLIWFHQRPGQSPRRLIYQVSKRDSGVPDRFSGSGTDFTLKISRVEAEDVGVYFCMQGTYRPPTLGQGTKVEIKR
notes: also called 阳性克隆AS3-3; 抗SARS病毒人源性抗体IgG Fab片段
Ka: 5.05e+07 M⁻¹
Kd: 19.8 nM
koff: 0.00306 s⁻¹
kon: 154000 M⁻¹ s⁻¹
